Patent US20150147318A1 (ZOETIS SERVICES, published 2015)

Tests used:
[1] = target: T1, recombinant canine Nerve Growth Factor (Canis lupus familiaris NGF) (canine (Canis lupus familiaris), UniProt Q29074 110-229 (pig entry), limits assumed); assay: cell-based or functional assay
T1 chain: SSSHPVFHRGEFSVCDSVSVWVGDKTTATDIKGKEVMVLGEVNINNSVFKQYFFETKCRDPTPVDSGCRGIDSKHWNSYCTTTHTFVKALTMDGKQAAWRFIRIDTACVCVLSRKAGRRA

[2] = target: T1, recombinant canine Nerve Growth Factor …; assay: SPR trkA inhibition: mAb pre-incubated with NGF, binding of NGF to trkA measured in RU
[3] = target: T1, recombinant canine Nerve Growth Factor …; assay: method not stated; recombinant canine NGF
[4] = target: T1, recombinant canine Nerve Growth Factor …; assay: SPR, Biacore T100, dog NGF; run 11/29
[5] = target: T1, recombinant canine Nerve Growth Factor …; assay: SPR, Biacore T100, dog NGF; run 11/24

B1: murine anti-NGF monoclonal antibody RN911 (antibody, V domains shown)
VH: QVQLKESGPGLVAPSQSLSITCTVSGFSLIGYDINWVRQPPGKGLEWLGMIWGDGTTDYNSALKSRLSISKDNSKSQVFLKMNSLRTDDTATYSCARGGYYYGTSYYFDYWGQGTTLTVSS
VL: DIQMTQTTSSLSASLGDRVTISCRASQDISNHLNWYQQKPDGTVKLLIYYISRFHSGVPSRFSGSGSGTDYSLTISNLEQEDIATYFCQQSKTLPYTFGGGTKLEIKR
notes: Mouse mAb; also called MU-RN911
- EC50, pERK inhibition, PC-12 (Rat Neuronal), pre-incubation 1 hour, 2/23/11 (RN911) [1]: 0.67 nM
- EC50, pERK inhibition, PC-12 (Rat Neuronal), pre-incubation 1 hour, 3/26/11 (RN911) [1]: 0.46 nM
- EC50, pERK inhibition, huTrkA (CHO), pre-incubation 1 hour, 3/26/11 (RN911) [1]: 0.47 nM
- EC50, pERK inhibition, huTrkA (CHO), pre-incubation 1 hour, 3/31/11 (RN911) [1]: 0.62 nM
- EC50, pERK inhibition, huTrkA (CHO), pre-incubation 6 hour, 3/31/11 (RN911) [1]: 0.57 nM
- Ki [2]: 4.2 nM
- Kd [3]: 0.755 nM

B2: LTM construct 45 (HC Y100W, LC H32N) (antibody, V domains shown)
VH: EVQLVESGGDLARPGGSLKLSCVVSGFSLIGYDINWVRQAPGKGLQWVTMIWGDGTTDYNSALKSRFTVSRDNAMNTVYLQMNSLRVEDTAVYYCARGGWYYGTSYYFDYWGQGTLVTVSS
VL: DIVMTQTPLSLSVSPGETASISCRASQDISNNLNWFRQKPGQSPQRLIYYISRFHSGVPDRFSGSGSGTDFTLRISRVEADDTGVYYCQQSKTLPYTFGAGTKLEIK
notes: Point mutant of canE3M65 as full IgG; Constant regions are not restated
- Kd [4]: 4.35 nM
- Kd [5]: 2.1 nM

B3: LTM109 (HC Y101W, G103A; LC D28S, H32N, K92H) (antibody, V domains shown)
VH: EVQLVESGGDLARPGGSLKLSCVVSGFSLIGYDINWVRQAPGKGLQWVTMIWGDGTTDYNSALKSRFTVSRDNAMNTVYLQMNSLRVEDTAVYYCARGGYWYATSYYFDYWGQGTLVTVSS
VL: DIVMTQTPLSLSVSPGETASISCRASQSISNNLNWFRQKPGQSPQRLIYYISRFHSGVPDRFSGSGSGTDFTLRISRVEADDTGVYYCQQSHTLPYTFGAGTKLEIK
notes: Full IgG; constant regions are not restated; also called CAN-LTM109-VH / CAN-LTM109-VL
- Kd [4]: 0.748 nM
- Kd [5]: 0.515 nM
